Results as given in US20220259593A1, “CONTROL OF MAMMALIAN GENE DOSAGE USING CRISPR” (The Regents of the University of California, priority 2019, published 2022).

Test system: K562 CRISPRi cells
Assay: Constant region variant library pooled growth screen, K562
Type: cell-based, human
Settings: sgRNA constant region variants
Method in brief: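 Relative activity expresses each targeting sequence:constant region pair's phenotype over that of the unmodified constant region. Pooled growth screen ran in K562 CRISPRi cells in duplicate spinner-flask replicates, with puromycin selection and 4–8 days' growth at >2000× coverage; library paired variants with 36 targeting sequences.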

[1] = activity relative to the unmodified constant region cr995
[2] = activity relative to the original, un-modified constant region cr995

B1: cr395 (nucleic acid)
guide: GTTTAAGAGCTAAGCTGGAAACAGCATAGCAAGTTTAAATATGGCTAGTCCGTTATCAACTTGAAAAAGTAGCACCGAATCGGTGCT
modifications: listed as DNA, chemistry not fully specified
For B1, the Mean relative activity [1] was 0.1397.

B2: cr761 (nucleic acid)
guide: GTTTAAGAGCTAAGCTGGAAACAGCATAGCTAGTTTAAATAAGGCTAGTCCGTTGTCTACTTGAAAAAGTGGCACCGAGTCGGTGCT
modifications: listed as DNA, chemistry not fully specified
For B2, the Mean relative activity [1] was 0.1369.

B3: cr881 (nucleic acid)
guide: GTTTAAGAGCTAAGCTGGAAACAGCATAGCAAGTTTAAATAAGGCTAGTCCTTTAACAACTTGAAAAAGTGGCACCGAGTCGGTGCT
modifications: listed as DNA, chemistry not fully specified
B3 gave a Mean relative activity [1] of 0.1367.

B4: cr091 (nucleic acid)
guide: GTTTTACAGCTAAGCTGGAAACAGCATAGCAAGTTTAAATAAGGCTAGTCCGTTATCAACTTGAAAAAGTGGCACCGAGTCGGTGCT
modifications: listed as DNA, chemistry not fully specified
For B4, the Mean relative activity [1] was 0.1366.

B5: cr798 (nucleic acid)
guide: GTTTAAGAGCTAAGCTGGAAACAGCATAGCAAGTTTAAATAAGGATATTCCGTTATCAACTTGAAAAAGTGGCATCCAGTGGATGCT
modifications: listed as DNA, chemistry not fully specified
B5 was tested, and the Mean relative activity [1] was 0.1361.

B6: cr390 (nucleic acid)
guide: GTTTAAGAGCTAAGCTGGAAACAGCATAGCAAATTTAAATAAGGCTAGTCCGTTATCAACTTGAAAAAGTAGCACCGAGTCGGTGCT
modifications: listed as DNA, chemistry not fully specified
In the case of B6, the Mean relative activity [1] is reported as 0.1354.

B7: cr560 (nucleic acid)
guide: GTTTAAGAGCTAAGCTGGAAACAGCATAGCAAGCTTAAATAAGGCTAGTCCGTTATCAACTTGAAAAAGTGGCACTGAGTCAGTGCT
modifications: listed as DNA, chemistry not fully specified
With B7 the Mean relative activity [1] was 0.1347.

B8: cr872 (nucleic acid)
guide: GTTTAAGAGCTAAGCTGGAAACAGCATAGCAAGTTTAAATAAGGCTATTCCGTTATCAACTTGAAAAAGTGGCACCGAGTCGGTGCT
modifications: listed as DNA, chemistry not fully specified
B8 was tested, and the Mean relative activity [1] was 0.1317.

B9: cr490 (nucleic acid)
guide: GTTTAAGAGCTAAGCTGGAAACAGCATAGCAAGTTTAAATAAGGCTAGTCCGTTATCAAATTGAAAAATTGGCGCCCAGTGGGCGCT
modifications: listed as DNA, chemistry not fully specified
For B9, the Mean relative activity [1] was 0.1317.

B10: cr274 (nucleic acid)
guide: GTTTAAGAGCTAAGCTGGAAACAGCATAGCAACTTTAAATAAGGCTAGTCCGTTATCAACCTGAAAAGGTGGCACCGAGTCGGTGCT
modifications: listed as DNA, chemistry not fully specified
Work on B10 yielded a Mean relative activity [1] of 0.1303.

B11: cr259 (nucleic acid)
guide: GTTTAAGAGCTAAGCTGGAAACAGCATAGCAAGTTTAAATAAGGCTAGTCCGTTATGTACTTCAAAAAGTGGCACCGAGTCGGTGCT
modifications: listed as DNA, chemistry not fully specified
With B11 the Mean relative activity [1] was 0.1243.

B12: cr089 (nucleic acid)
guide: GTTTATAAGCTAAGCTGGAAACAGCATAGCAAGTTTAAATAAGGCTAGTCCGTTATCAACTTGAAAAAGTGGCACCGAGTCGGTGCT
modifications: listed as DNA, chemistry not fully specified
B12 showed a Mean relative activity [1] of 0.1183.

B13: cr821 (nucleic acid)
guide: GTTTAAGAGCTAAGCTGGAAACAGCGTAGCAAGTTTAAATAAGGCTAGTCCGTTATCAACTTGAAAAAGTGGCACCGAGTCGGTGCT
modifications: listed as DNA, chemistry not fully specified
B13 was tested, and the Mean relative activity [2] was 1.038.

B14: cr461 (nucleic acid)
guide: GTTTAAGAGCTAAGCTGGAAACAGCATAGCAAGTTTAAATAAGGCTAGTCCTTAATCAACTTGAAGAAGTGGCACCGAGTCGGTGCT
modifications: listed as DNA, chemistry not fully specified
With B14 the Mean relative activity [1] was 0.1147.

B15: cr257 (nucleic acid)
guide: GTTTAAGAGCTAAGCTGGAAACAGCATAGCAAGTTTAAATCAGGCTAGTCCGTTATCAACTTGAAAAAGTTGCACCGAGTCGGTGCT
modifications: listed as DNA, chemistry not fully specified
Work on B15 yielded a Mean relative activity [1] of 0.1109.

B16: cr059 (nucleic acid)
guide: GGTTAAAAGCTAAGCTGGAAACAGCATAGCAAGTTTAAATAAGGCTAGTCCGTTATCAACTTGAAAAAGTGGCACCGAGTCGGTGCT
modifications: listed as DNA, chemistry not fully specified
B16 was tested, and the Mean relative activity [1] was 0.1106.

B17: cr538 (nucleic acid)
guide: GTTTAAGAGCTAAGCTGGAAACAGCATAGCAAGCTTAAATAAGACTAGTTCGTTATCAACTTGAAAAAGTGGCACCGAGTCGGTGCT
modifications: listed as DNA, chemistry not fully specified
B17 showed a Mean relative activity [2] of 0.1104.

B18: cr411 (nucleic acid)
guide: GTTTAAGAGCTAAGCTGGAAACAGCATAGCAAGTTTAAATAAGACTAGTCCGTTATCAACTTGAAAAAGTGGCACCGAGTCGGTGCT
modifications: listed as DNA, chemistry not fully specified
B18 gave a Mean relative activity [2] of 0.1086.

B19: cr580 (nucleic acid)
guide: GTTTAAGAGCTAAGCTGGAAACAGCATAGCAAGTTTAGATAAGGCTAGTCCGTTATCAACTTGAAAAAGTGGCACCGAGTCGGTGCT
modifications: listed as DNA, chemistry not fully specified
For B19, the Mean relative activity [2] was 0.1076.

B20: cr087 (nucleic acid)
guide: CTTTGAGAGCTAAGCTGGAAACAGCATAGCAAGTTTAAATAAGGCTAGTCCGTTATCAACTTGAAAAAGTGGCACCGAGTCGGTGCT
modifications: listed as DNA, chemistry not fully specified
Molecule B20 has a Mean relative activity [2] of 0.1041.

B21: cr290 (nucleic acid)
guide: GTTTAAGAGCTAAGCTGGAAACAGCATAGCAAGTTTAAATAAGGCTAGTCCATTATCAACTTGAAAAAGTTGCACCGAGTCGGTGCT
modifications: listed as DNA, chemistry not fully specified
B21 gave a Mean relative activity [2] of 0.1027.

B22: cr288 (nucleic acid)
guide: GTTTAAGAGCTAAGCTGGAAACAGCATAGCAACTTTAAATAAGGCTAGTCCGTTATCAACTGGAAACAGTGGCACCGAGTCGGTGCT
modifications: listed as DNA, chemistry not fully specified
B22 gave a Mean relative activity [2] of 0.1016.

B23: cr727 (nucleic acid)
guide: GTTTAAGAGCTAAGCTGGAAACAGCATAGCAAGTTTAAATAAGGCTAGTCCGTTATCAACTTGAAAAAGTGTCGCCGAGTCGGCGAT
modifications: listed as DNA, chemistry not fully specified
For B23, the Mean relative activity [2] was 1.037.

B24: cr062 (nucleic acid)
guide: GTTCAAGTGCTAAGCTGGAAACAGCATAGCAAGTTTAAATAAGGCTAGTCCGTTATCAACTTGAAAAAGTGGCACCGAGTCGGTGCT
modifications: listed as DNA, chemistry not fully specified
In the case of B24, the Mean relative activity [2] is reported as 0.1003.

B25: cr401 (nucleic acid)
guide: GTTTAAGAGCTAAGCTGGAAACAGCATAGCAAGTTTAAATAAGGCTAGTCCGTTATCAACTTGAAAAAGTGGCTCCGAGTCTGCGCT
modifications: listed as DNA, chemistry not fully specified
For B25, the Mean relative activity [2] was 0.09781.

B26: cr796 (nucleic acid)
guide: GTTTAAGAGCTAAGCTGGAAACAGCATAGCAAGTTAAAATAAGGCTAGTCCGTTATCAACTTGAAAAAGTGGCACCGAGTCGGTGCT
modifications: listed as DNA, chemistry not fully specified
Molecule B26 has a Mean relative activity [2] of 0.096.

B27: cr453 (nucleic acid)
guide: GTTTAAGAGCTAAGCTGGAAACAGCATAGCAAGTTTAACTAAGGCTAGTCCGTTATCAACTTGAAAAAGTGGCACCGAGTCGGTGCT
modifications: listed as DNA, chemistry not fully specified
For B27, the Mean relative activity [2] was 0.09528.

B28: cr513 (nucleic acid)
guide: GTTTAAGAGCTAAGCTGGAAACAGCATAGCAACTTTAAATAAGGCTAGTCCGTTATCACCTTGAAAAAGGGGCACCGAGTCGGTGCT
modifications: listed as DNA, chemistry not fully specified
In the case of B28, the Mean relative activity [2] is reported as 0.0947.

B29: cr084 (nucleic acid)
guide: GTCTGAGAGCTAAGCTGGAAACAGCATAGCAAGTTTAAATAAGGCTAGTCCGTTATCAACTTGAAAAAGTGGCACCGAGTCGGTGCT
modifications: listed as DNA, chemistry not fully specified
B29 gave a Mean relative activity [2] of 0.09372.

B30: cr112 (nucleic acid)
guide: GTTTAAGAGCTAAGCTGGAAACAGCATAGCAAGTTTAAATAAAGTTAATCTGTTATCAATTTGAAAAAATGGCACCGAGTCGGTGCT
modifications: listed as DNA, chemistry not fully specified
Work on B30 yielded a Mean relative activity [2] of 0.0933.
